Experiment in all cases: ITC
In general terms: ITC needs no label: the signal is the heat of the interaction.

One test addresses T1, Mad1^CTD R650A (human, UniProt Q9Y6D9 597-718, R650A).
T1 sequence: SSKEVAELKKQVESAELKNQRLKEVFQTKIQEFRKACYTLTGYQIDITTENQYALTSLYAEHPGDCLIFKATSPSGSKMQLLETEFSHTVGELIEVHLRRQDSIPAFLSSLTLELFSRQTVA

For a further test, the target named is T2, Mad1^CTD Q627A (human, UniProt Q9Y6D9 597-718, Q627A).
T2 sequence: T1 sequence with Q31A, A54R

The target of the next test is T3, Mad1^CTD I643A (human, UniProt Q9Y6D9 597-718, I643A).
T3 sequence: T1 sequence with I47A, A54R

The target in a further test is T4, Mad1CTD K614A (Homo sapiens).
T4 chain: T1 sequence with K18A, A54R

Experimental findings from publication PMC8391104 (2021) are described below.

Changes are numbered by the printed parent chain. Where no end group is shown, it is not given here. [ ]: non-standard residue; d: D form. pT = C[C@@H](OP(=O)(O)O)[C@H](N)C(=O)O; pS = N[C@@H](COP(=O)(O)O)C(=O)O

By Kd is commonly meant a measure of binding affinity in units of concentration.

B1: doubly phosphorylated Bub1^CD1 peptide (pSer459-pThr461) (peptide)
peptide: KVQP[pS]P[pT]VHTKEALGFIMNMFQAPTS
With B1, the Kd with Mad1^CTD R650A is 1.1 µM; with Mad1^CTD Q627A, 2.4 µM; with Mad1^CTD I643A it was 1.4 µM; with Mad1CTD K614A, 2.4 µM.
